Measured values: the supplement of paper PMC10567573
± gives the standard deviation.

Test: protein stability index of a GFP-peptide fusion (GPS, HEK-293T) (PSI 1-6); higher = more stable
Conditions: c terminus: a fixed tail appended
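Note: 24-mer peptide tiles fused after GFP, lentivirally expressed, FACS-sorted into six equal bins by GFP/DsRed ratio, decoded by Illumina sequencing, PSI is the read-weighted mean bin number.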

Sequence	protein stability index (treatment: DMSO)	protein stability index (treatment: MLN4924 1 uM, 8 h)
LKGSRVSILFGHENRVSTLRVSPD [GNB5]	2.96 ± 0.15	3.02 ± 0.29
LKGYLYAVGGRNAAGELPTVECYN [KLHL13]	2.37 ± 0.51	2.67 ± 0.34
LKKEPGHPWKWSNGKEFNNWFNVT [CD69]	2.14 ± 0.13	2.23 ± 0.25
LKNKKGAKQQKFIKAVTHQVKFGQ [ZC3H15]	3.14 ± 0.57	3.25 ± 0.39
LKYLHEQEILHRDLKLGNFFINEA [PLK2]	1.85 ± 0.18	1.97 ± 0.3
LLEQSLEEFAQAESKDQGKTLALA [ALDH8A1]	4.68 ± 0.33	4.68 ± 0.14
LLKYRAREPVTKAEMLGSVVGNWQ [MAGEA3]	2.39 ± 0.2	2.51 ± 0.28
LLLYRIRKDVGCNRFEVTLEKSNK [VPS39]	2.21 ± 0.35	2.14 ± 0.3
LLSCGKILTGCKNMLFQQNKDGIG [ACSBG2]	2.13 ± 0.42	2.23 ± 0.17
LLSRLEEEEQDILQRLRENAAHLG [TRIM39]	3.63 ± 0.16	3.71 ± 0.33
LLSRNQLSTAASLGPSGLQNHGQH [LCOR]	3.28 ± 0.095	3.46 ± 0.23
LMDGGDLPSVTDIRRPRLYLLQWL [PLK2]	2.48 ± 0.17	2.5 ± 0.27
LMSESEWRNLGVQQSQGWVHYMIH [CKS1B]	2.42 ± 0.35	2.05 ± 0.31
LNGSSQPTTRNYPELNNNQYNRSS [CDC14A]	4.19 ± 0.17	4.34 ± 0.09
LNPSKLMEKEINGSKVTCRGLLEY [ATL3]	2.92 ± 0.29	2.96 ± 0.2
LPCARVQICRAQGLETLFSKAQEL [ZSWIM9]	2.87 ± 0.51	2.33 ± 0.79
LPGNHSTSQEIFRQRFRHLRYQET [ZNF232]	3.13 ± 0.17	3.39 ± 0.19
LPGPTRPVLGRRAVGGRLRLVPGG [HAGHL]	3.53 ± 0.41	3.67 ± 0.23
LPIQTPGAFLRTCLLSSNSRSLLT [TLE6]	2.06 ± 0.34	2.1 ± 0.19
LPPALVPAGGLAPGGGRGALLDQI [WAS]	3.69 ± 0.12	3.71 ± 0.25
LPPIPHVFSAGTGSAILPHFHHAF [PLAGL1]	2.15 ± 0.28	2.11 ± 0.1
LPSLVLARLVFVPLLLLCNIKPRR [SLC29A1]	2.79 ± 0.57	2.73 ± 0.41
LPTLSHIQEAQSAWKDDFALNSML [YJU2B]	3.13 ± 0.3	3.04 ± 0.23

Sequence	protein stability index (treatment: DMSO)	protein stability index (treatment: MLN4924 1 uM, 8 h)
LQFTILLSLIGVRVDVDTYLTSQL [NFE2L1]	2.97 ± 0.47	3.13 ± 0.27
LQGTESLNRATQSIERSHRIATET [VTI1B]	4.65 ± 0.18	4.76 ± 0.14
LQLFSSTLVGCWSDVVGRRSSLLA [MFSD9]	2.59 ± 0.65	2.38 ± 0.47
LQLLQSRTSRKFLACRLTPDMETK [INTS3]	2.69 ± 0.18	2.68 ± 0.2
LRALGELLRRDLGVGTSMEGASPL [FANCE]	2.92 ± 0.32	2.91 ± 0.43
LRAVRQRSEFTLMAKRIGKDLSNT [STX5]	2.64 ± 0.23	2.78 ± 0.37
LRCGNQGKGWKATRLFHDSAVTSV [DCAF4]	2.19 ± 0.21	2.27 ± 0.22
LRDGAVPLPESRREIEELLAEAKY [KCTD10]	4.5 ± 0.25	4.66 ± 0.28
LRDWEDLQQDFQNIQETHRLYRLK [TMEM120A]	3.38 ± 0.28	3.49 ± 0.4
LRGPSPWGFRLVGGRDFSAPLTIS [PDLIM4]	2.79 ± 0.2	2.44 ± 0.22
LRHDEVRTYFHEFGHVMHQICAQV [NLN]	2.31 ± 0.12	2.22 ± 0.26
LRLEREEYVLLKALALANSDSVHI [ESRRA]	2.51 ± 0.15	2.27 ± 0.2
LRSSDLYRHQRLHTGERPYECTVC [ZNF449]	3.05 ± 0.17	3.17 ± 0.29
LRTLDKKTFYKTADISQMLVCTAD [TAF7L]	2.61 ± 0.32	2.65 ± 0.41
LRTLSRAKFWPRRRFNFFVLENNL [DNAAF3]	2.33 ± 0.99	2.15 ± 0.087
LRYTLWIPLYPLGCLAEAVSVIQS [HACD3]	3.08 ± 0.49	3.11 ± 0.37
LSCLHSVCEQCLQILYESCPKYKF [RNF208]	2.2 ± 0.25	2.35 ± 0.51
LSDFEECEETGELFEEPAPQALAT [FCHSD1]	5.21 ± 0.22	5.2 ± 0.23
LSFYNARTKQVLHTFKTRFTQPLL [FSD1]	2.45 ± 0.6	2.43 ± 0.6
LSIQVEEERRAREWLLDAPELPEG [ZMAT5]	4.71 ± 0.34	5.06 ± 0.41
LSNLQKESRACLERIQELEDLLAK [LMNB1]	3.52 ± 0.15	3.67 ± 0.23
LSQLRVLCCEWLRPEKHTKEQILE [ZNF232]	2.37 ± 0.35	2.2 ± 0.22
